Laboratory results: the supplement of paper PMC7125110
± gives the standard error. For part of these data: Variants at the floor of the assay were thinned out.

B1: glmS ribozyme (parent)
chain: AUAAAAGCGCCAGAACUACAGAAAUGUAGUUGACGAGGAGGAGGUUUAUCGAAUUUUCGGCGGAUGCCUCCAAA

How the values were obtained:
Conditions in all cases: with glucosamine-6-phosphate
glucosamine-6-phosphate [1] = variants of: B1; test: kcat; higher = faster cleavage; RNA array
Procedure, shortened: (§1)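 Glucosamine-6-phosphate in HEPES/KCl/Mg(OAc)2 buffer, at 40 μM to 10 mM, was flowed over barcoded ribozyme variants transcribed in situ by E. coli RNA polymerase on sequenced MiSeq chips. Tracking was through a hybridised Cy3 probe at 37 °C. kobs, kcat and KM came from exponential decay fits and weighted Michaelis–Menten fits of normalised per-tile medians.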

glucosamine-6-phosphate [2] = variants of: B1; test: KM; higher = weaker cofactor use; RNA array
Procedure, shortened: as §1

glucosamine-6-phosphate [3] = variants of: B1; test: self-cleavage kobs at 40 uM GlcN6P; higher = faster cleavage; RNA array
Procedure, shortened: as §1

glucosamine-6-phosphate [4] = variants of: B1; test: self-cleavage kobs at 160 uM GlcN6P; higher = faster cleavage; RNA array
Procedure, shortened: as §1

glucosamine-6-phosphate [5] = variants of: B1; test: self-cleavage kobs at 640 uM GlcN6P; higher = faster cleavage; RNA array
Procedure, shortened: as §1

glucosamine-6-phosphate [6] = variants of: B1; test: self-cleavage kobs at 2500 uM GlcN6P; higher = faster cleavage; RNA array
Procedure, shortened: as §1

glucosamine-6-phosphate [7] = variants of: B1; test: self-cleavage kobs at 10000 uM GlcN6P; higher = faster cleavage; RNA array
Procedure, shortened: as §1

A14G G37A
kcat (glucosamine-6-phosphate [1]): 0.00833 ± 0.0023 s⁻¹
KM (glucosamine-6-phosphate [2]): 3890 ± 1400 µM
self-cleavage kobs at 40 uM GlcN6P (glucosamine-6-phosphate [3]): 0.000119 ± 1.7e-05 s⁻¹
self-cleavage kobs at 160 uM GlcN6P (glucosamine-6-phosphate [4]): 0.00027 ± 3.3e-05 s⁻¹
self-cleavage kobs at 640 uM GlcN6P (glucosamine-6-phosphate [5]): 0.00126 ± 0.00017 s⁻¹
self-cleavage kobs at 2500 uM GlcN6P (glucosamine-6-phosphate [6]): 0.00399 ± 0.0005 s⁻¹
self-cleavage kobs at 10000 uM GlcN6P (glucosamine-6-phosphate [7]): 0.00564 ± 0.00066 s⁻¹

A14U G51U
kcat (glucosamine-6-phosphate [1]): < 1e-05 s⁻¹
self-cleavage kobs at 40 uM GlcN6P (glucosamine-6-phosphate [3]): < 1e-05 s⁻¹
self-cleavage kobs at 640 uM GlcN6P (glucosamine-6-phosphate [5]): < 1e-05 s⁻¹
self-cleavage kobs at 10000 uM GlcN6P (glucosamine-6-phosphate [7]): < 1e-05 s⁻¹

A14U A39U
kcat (glucosamine-6-phosphate [1]): 0.00814 ± 0.0024 s⁻¹
KM (glucosamine-6-phosphate [2]): 3050 ± 1200 µM
self-cleavage kobs at 40 uM GlcN6P (glucosamine-6-phosphate [3]): 0.000133 ± 1.7e-05 s⁻¹
self-cleavage kobs at 160 uM GlcN6P (glucosamine-6-phosphate [4]): 0.000258 ± 6.7e-05 s⁻¹
self-cleavage kobs at 640 uM GlcN6P (glucosamine-6-phosphate [5]): 0.00161 ± 0.00024 s⁻¹
self-cleavage kobs at 2500 uM GlcN6P (glucosamine-6-phosphate [6]): 0.00346 ± 0.00063 s⁻¹
self-cleavage kobs at 10000 uM GlcN6P (glucosamine-6-phosphate [7]): 0.00632 ± 0.00089 s⁻¹

A14U C70U C71G
kcat (glucosamine-6-phosphate [1]): 4.59e-05 ± 1.2e-05 s⁻¹
self-cleavage kobs at 640 uM GlcN6P (glucosamine-6-phosphate [5]): 6.53e-05 ± 1.7e-05 s⁻¹
self-cleavage kobs at 2500 uM GlcN6P (glucosamine-6-phosphate [6]): 3.73e-05 ± 1.3e-05 s⁻¹
self-cleavage kobs at 10000 uM GlcN6P (glucosamine-6-phosphate [7]): 3.81e-05 ± 1.8e-05 s⁻¹

A14U A42U
kcat (glucosamine-6-phosphate [1]): 3.26e-05 ± 1.5e-06 s⁻¹
KM (glucosamine-6-phosphate [2]): 884 ± 270 µM
self-cleavage kobs at 10000 uM GlcN6P (glucosamine-6-phosphate [7]): 3.02e-05 ± 7.7e-06 s⁻¹

A14G G32U
kcat (glucosamine-6-phosphate [1]): 0.00512 ± 0.001 s⁻¹
KM (glucosamine-6-phosphate [2]): 5710 ± 1400 µM
self-cleavage kobs at 40 uM GlcN6P (glucosamine-6-phosphate [3]): 4.82e-05 ± 7.9e-06 s⁻¹
self-cleavage kobs at 160 uM GlcN6P (glucosamine-6-phosphate [4]): 0.000137 ± 1.8e-05 s⁻¹
self-cleavage kobs at 640 uM GlcN6P (glucosamine-6-phosphate [5]): 0.000476 ± 5.1e-05 s⁻¹
self-cleavage kobs at 2500 uM GlcN6P (glucosamine-6-phosphate [6]): 0.00158 ± 0.00017 s⁻¹
self-cleavage kobs at 10000 uM GlcN6P (glucosamine-6-phosphate [7]): 0.00329 ± 0.0004 s⁻¹

A14G G44A
kcat (glucosamine-6-phosphate [1]): 0.00146 ± 0.00055 s⁻¹
self-cleavage kobs at 40 uM GlcN6P (glucosamine-6-phosphate [3]): 2.21e-05 ± 9.5e-06 s⁻¹
self-cleavage kobs at 160 uM GlcN6P (glucosamine-6-phosphate [4]): 4.23e-05 ± 1.4e-05 s⁻¹
self-cleavage kobs at 640 uM GlcN6P (glucosamine-6-phosphate [5]): 0.000664 ± 0.00018 s⁻¹
self-cleavage kobs at 2500 uM GlcN6P (glucosamine-6-phosphate [6]): 0.00104 ± 0.00021 s⁻¹
self-cleavage kobs at 10000 uM GlcN6P (glucosamine-6-phosphate [7]): 0.00102 ± 0.00013 s⁻¹

A14U C16G
kcat (glucosamine-6-phosphate [1]): 0.000881 ± 0.00019 s⁻¹
KM (glucosamine-6-phosphate [2]): 1840 ± 670 µM
self-cleavage kobs at 160 uM GlcN6P (glucosamine-6-phosphate [4]): 5.83e-05 ± 1.7e-05 s⁻¹
self-cleavage kobs at 640 uM GlcN6P (glucosamine-6-phosphate [5]): 0.000263 ± 3.3e-05 s⁻¹
self-cleavage kobs at 2500 uM GlcN6P (glucosamine-6-phosphate [6]): 0.000429 ± 6.7e-05 s⁻¹
self-cleavage kobs at 10000 uM GlcN6P (glucosamine-6-phosphate [7]): 0.000865 ± 0.00015 s⁻¹

A14G A64G
kcat (glucosamine-6-phosphate [1]): 0.0806 ± 0.028 s⁻¹
KM (glucosamine-6-phosphate [2]): 2030 ± 810 µM
self-cleavage kobs at 40 uM GlcN6P (glucosamine-6-phosphate [3]): 0.00184 ± 0.00024 s⁻¹
self-cleavage kobs at 160 uM GlcN6P (glucosamine-6-phosphate [4]): 0.00428 ± 0.001 s⁻¹
self-cleavage kobs at 640 uM GlcN6P (glucosamine-6-phosphate [5]): 0.0212 ± 0.0065 s⁻¹
self-cleavage kobs at 10000 uM GlcN6P (glucosamine-6-phosphate [7]): 0.0677 ± 0.017 s⁻¹

A14U C50U C67G
kcat (glucosamine-6-phosphate [1]): 3.51e-05 ± 1.5e-05 s⁻¹

A14G U49A
kcat (glucosamine-6-phosphate [1]): 3.99e-05 ± 1e-06 s⁻¹
KM (glucosamine-6-phosphate [2]): 773 ± 130 µM
self-cleavage kobs at 10000 uM GlcN6P (glucosamine-6-phosphate [7]): 3.67e-05 ± 1.2e-05 s⁻¹

A14U C50G
kcat (glucosamine-6-phosphate [1]): 0.000106 ± 3e-05 s⁻¹
self-cleavage kobs at 40 uM GlcN6P (glucosamine-6-phosphate [3]): 4.12e-05 ± 1.3e-05 s⁻¹
self-cleavage kobs at 160 uM GlcN6P (glucosamine-6-phosphate [4]): 0.000164 ± 3e-05 s⁻¹
self-cleavage kobs at 2500 uM GlcN6P (glucosamine-6-phosphate [6]): 9.1e-05 ± 1.6e-05 s⁻¹
self-cleavage kobs at 10000 uM GlcN6P (glucosamine-6-phosphate [7]): 0.000112 ± 5e-05 s⁻¹

A14U U46A
kcat (glucosamine-6-phosphate [1]): 0.000437 ± 0.0001 s⁻¹
KM (glucosamine-6-phosphate [2]): 2000 ± 930 µM
self-cleavage kobs at 160 uM GlcN6P (glucosamine-6-phosphate [4]): 2.43e-05 ± 9.4e-06 s⁻¹
self-cleavage kobs at 640 uM GlcN6P (glucosamine-6-phosphate [5]): 9.67e-05 ± 1.3e-05 s⁻¹
self-cleavage kobs at 2500 uM GlcN6P (glucosamine-6-phosphate [6]): 0.000343 ± 3.4e-05 s⁻¹
self-cleavage kobs at 10000 uM GlcN6P (glucosamine-6-phosphate [7]): 0.000323 ± 3.5e-05 s⁻¹

A14U U46C
kcat (glucosamine-6-phosphate [1]): 0.00036 ± 8.4e-05 s⁻¹
KM (glucosamine-6-phosphate [2]): 956 ± 430 µM
self-cleavage kobs at 160 uM GlcN6P (glucosamine-6-phosphate [4]): 6.29e-05 ± 9.9e-06 s⁻¹
self-cleavage kobs at 640 uM GlcN6P (glucosamine-6-phosphate [5]): 0.000126 ± 1.4e-05 s⁻¹
self-cleavage kobs at 2500 uM GlcN6P (glucosamine-6-phosphate [6]): 0.000395 ± 5.3e-05 s⁻¹
self-cleavage kobs at 10000 uM GlcN6P (glucosamine-6-phosphate [7]): 0.000305 ± 4e-05 s⁻¹

A14G C58U
kcat (glucosamine-6-phosphate [1]): 0.000263 ± 4.8e-05 s⁻¹
self-cleavage kobs at 40 uM GlcN6P (glucosamine-6-phosphate [3]): < 1e-05 s⁻¹
self-cleavage kobs at 2500 uM GlcN6P (glucosamine-6-phosphate [6]): 5.32e-05 ± 1.9e-05 s⁻¹
self-cleavage kobs at 10000 uM GlcN6P (glucosamine-6-phosphate [7]): 0.000129 ± 2.9e-05 s⁻¹
